Assay results: patent US20200031915A1, “IMMUNOGLOBULIN-BINDING PEPTIDE WITH IMPROVED STABILITY” (KANEKA CORPORATION, priority 2017, published 2020)

Biological target: T1, Fab fragment of humanized monoclonal IgG (Infliximab) (Homo sapiens, UniProt P01834+P01857)
T1 construct: fragmented into a Fab fragment and an Fc fragment by using papain, and the Fc fragment and Fab fragment were purified; purchased Mitsubishi Tanabe Pharma Corporation Remicade (Infliximab)
Test: Residual Fab-binding activity of GB1#-N08K after alkali treatment (Biacore SPR)
Conditions: 15 mM NaOH final (0.1 mL of 45 mM NaOH added to 0.2 mL of 20 μM peptide), 25° C., 2 hours; ratio to before treatment as 100%; N=4

T1 sequence (P01857 with tags, fused parts or gaps limits assumed, other chains not shown): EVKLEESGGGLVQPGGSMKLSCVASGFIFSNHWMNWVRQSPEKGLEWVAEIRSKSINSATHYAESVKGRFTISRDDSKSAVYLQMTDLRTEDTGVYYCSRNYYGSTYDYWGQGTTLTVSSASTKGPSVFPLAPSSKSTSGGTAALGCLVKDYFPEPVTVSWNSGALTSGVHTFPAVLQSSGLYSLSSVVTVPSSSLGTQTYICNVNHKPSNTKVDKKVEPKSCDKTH

For “GB1#-N08A: Comparative example: GB1#-Cont (SEQ ID NO: 4) with mutation N08A; amino acid SEQ ID NO: 41 (TTYKLILAGKTLTGYTTTIAVDAATAEKVLKQFANDNGVDGEWTYDDATKTFTVTE; Altered SpG)”, which “residual binding activity to Fab after alkali treatment” value is on record?
The value was 68%.

“GB1#-N08K: GB1#-Cont (SEQ ID NO: 4), strong binding ability to Fab, with mutation N08K introduced; amino acid SEQ ID NO: 32 (TTYKLILKGKTLTGYTTTIAVDAATAEKVLKQFANDNGVDGEWTYDDATKTFTVTE; oligo DNA)” was tested. Which “residual binding activity to Fab after alkali treatment” value did it give?
The value was 80%.
